As a reminder, the EC50 is the concentration needed to bring the measured effect to its halfway point. High values mean a less potent agent, low ones a more potent agent.

The target of test [1] is T1, huTNC (recombinant human TnC antigen) (human, UniProt P24821 984-1798, biotin on the C-terminal avi-tag where used biotinylated (Examples 5 and 10)).
T1 sequence: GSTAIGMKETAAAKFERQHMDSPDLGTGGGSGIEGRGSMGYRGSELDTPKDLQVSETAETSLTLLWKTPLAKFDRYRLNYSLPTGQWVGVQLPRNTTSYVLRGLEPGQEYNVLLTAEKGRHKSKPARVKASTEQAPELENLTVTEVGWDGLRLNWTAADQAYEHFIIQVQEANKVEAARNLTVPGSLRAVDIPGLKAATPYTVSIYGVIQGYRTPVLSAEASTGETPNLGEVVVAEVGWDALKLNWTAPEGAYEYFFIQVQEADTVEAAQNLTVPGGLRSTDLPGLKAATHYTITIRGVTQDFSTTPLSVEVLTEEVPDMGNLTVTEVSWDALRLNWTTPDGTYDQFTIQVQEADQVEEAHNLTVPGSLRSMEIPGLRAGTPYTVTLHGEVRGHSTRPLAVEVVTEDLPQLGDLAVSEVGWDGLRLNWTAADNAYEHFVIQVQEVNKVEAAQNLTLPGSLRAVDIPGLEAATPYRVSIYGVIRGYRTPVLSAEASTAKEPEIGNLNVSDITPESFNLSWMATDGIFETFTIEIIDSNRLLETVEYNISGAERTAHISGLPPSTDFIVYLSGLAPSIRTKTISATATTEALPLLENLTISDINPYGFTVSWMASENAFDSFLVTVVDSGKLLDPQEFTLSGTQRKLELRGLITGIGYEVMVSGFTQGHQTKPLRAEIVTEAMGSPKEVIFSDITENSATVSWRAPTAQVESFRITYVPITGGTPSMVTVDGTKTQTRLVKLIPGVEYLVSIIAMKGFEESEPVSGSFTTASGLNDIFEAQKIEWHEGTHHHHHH
Description: SPR Biacore T200, biotinylated TnC on SA chip, IgG as analyte, 1:1 fit (apparent, bivalent). On the procedure:
(§1) Binding of the anti-TnC IgGs 18D4, 11C7 and the Fab fragment of anti-TnC 18D4 to human, murine and cynomolgus TnC (antigens according to Table 4) was assessed by surface plasmon resonance (SPR). All SPR experiments were performed on a Biacore T200 at 25° C. with HBS-EP as running buffer (0.01 M HEPES pH 7.4, 0.15 M NaCl, 3 mM EDTA, 0.005% Surfactant P20, Biacore, Freiburg/Germany).
(§2) A 20 μg/ml stock solution of biotinylated human, murine or cynomolgus TnC was injected on a SA chip, with the aim to immobilize up to 100 RU using the immobilization wizard function.
(§3) An additional dissociation step of 1800s was performed for the highest concentration of IgG. After each step the surface was regenerated following two sequential injections of 10 mM glycine pH2.1 for 60 s. Bulk refractive index differences were corrected for by subtracting the response obtained in a reference flow cell without TNC. Affinity and avidity were calculated using the Langmuir 1:1 kinetic model. However, as the KD for the 1:1 fitting of bivalent interactions is an apparent value only, it should only be used for comparisons.
A general note: SPR reads the build-up and loss of mass on a sensor chip optically.

The target of test [2] is T2, GST TNC hu fn5 B-C fn6 B (human, biotin on the C-terminal avi-tag (BirA, site-specific)).
T2 chain: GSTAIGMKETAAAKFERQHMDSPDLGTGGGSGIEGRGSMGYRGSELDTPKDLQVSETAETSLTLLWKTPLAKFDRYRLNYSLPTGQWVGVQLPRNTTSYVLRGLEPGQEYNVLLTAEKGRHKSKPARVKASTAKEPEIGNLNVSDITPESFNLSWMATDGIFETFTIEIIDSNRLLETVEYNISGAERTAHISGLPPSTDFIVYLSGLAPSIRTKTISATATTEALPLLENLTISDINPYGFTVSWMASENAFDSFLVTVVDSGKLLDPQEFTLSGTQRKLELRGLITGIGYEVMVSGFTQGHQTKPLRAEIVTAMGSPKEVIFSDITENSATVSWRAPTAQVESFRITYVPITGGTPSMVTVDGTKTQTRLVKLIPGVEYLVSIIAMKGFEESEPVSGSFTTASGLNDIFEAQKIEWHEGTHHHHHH
Description: SPR ProteOn XPR36, biotinylated antigen on NLC chip, Fab as analyte, 25 C. On the procedure:
(§4) Immobilization of antigens (ligand): Recombinant antigens were diluted with PBST (10 mM phosphate, 150 mM sodium chloride pH 7.4, 0.005% Tween 20) to 10 μg/ml, then injected at 30 μl/minute in vertical orientation. Injection of analytes: For ‘one-shot kinetics’ measurements, injection direction was changed to horizontal orientation, two-fold dilution series of purified Fab were injected simultaneously along separate channels 1-5, with association times of 200 s, and dissociation times of 240 s, respectively. Buffer (PBST) was injected along the sixth channel to provide an “in-line” blank for referencing. Association rate constants (kₒₙ) and dissociation rate constants (koff) were calculated using a simple one-to-one Langmuir binding model in ProteOn Manager v3.1 software by simultaneously fitting the association and dissociation sensorgrams. The equilibrium dissociation constant (KD) was calculated as the ratio koff/kₒₙ.

In test [3] the target is T3, GST huTNC fn5 A1234 BC fn6 B (human, UniProt P24821 984-1798, biotin on the C-terminal avi-tag (BirA, site-specific)).
T3 construct: also called Human GST-fused TnC fn5 A1234 BC fn6
T3 sequence: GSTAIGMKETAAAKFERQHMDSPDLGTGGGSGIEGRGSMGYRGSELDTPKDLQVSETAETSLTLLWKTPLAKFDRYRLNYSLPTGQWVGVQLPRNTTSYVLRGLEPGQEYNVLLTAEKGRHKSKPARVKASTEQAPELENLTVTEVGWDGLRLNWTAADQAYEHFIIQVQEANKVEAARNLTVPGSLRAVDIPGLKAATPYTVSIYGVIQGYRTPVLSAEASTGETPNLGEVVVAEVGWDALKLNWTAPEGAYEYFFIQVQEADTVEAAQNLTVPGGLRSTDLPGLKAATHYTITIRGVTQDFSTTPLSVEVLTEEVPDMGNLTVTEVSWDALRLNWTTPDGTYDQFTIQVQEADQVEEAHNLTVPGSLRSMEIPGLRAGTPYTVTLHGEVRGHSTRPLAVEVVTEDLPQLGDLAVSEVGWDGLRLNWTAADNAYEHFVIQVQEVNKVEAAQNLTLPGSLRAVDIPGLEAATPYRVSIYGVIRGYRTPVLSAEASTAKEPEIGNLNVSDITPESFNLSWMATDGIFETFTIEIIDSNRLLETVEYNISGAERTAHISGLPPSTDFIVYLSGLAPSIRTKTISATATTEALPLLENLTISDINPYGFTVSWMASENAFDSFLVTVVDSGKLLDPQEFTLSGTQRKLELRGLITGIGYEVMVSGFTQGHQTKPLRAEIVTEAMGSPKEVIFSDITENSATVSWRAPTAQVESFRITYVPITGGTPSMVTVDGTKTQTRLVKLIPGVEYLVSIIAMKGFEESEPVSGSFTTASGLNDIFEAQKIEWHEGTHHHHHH
The description is as above. As to the method: as §4

Test [4] has as its target T4, cynoTNC (recombinant cynomolgus TnC antigen) (cynomolgus, biotin on the C-terminal avi-tag where used biotinylated (Example 5)).
T4 construct: GST may have been cleaved off by thrombin; The text says this construct lacks the C domain
T4 chain: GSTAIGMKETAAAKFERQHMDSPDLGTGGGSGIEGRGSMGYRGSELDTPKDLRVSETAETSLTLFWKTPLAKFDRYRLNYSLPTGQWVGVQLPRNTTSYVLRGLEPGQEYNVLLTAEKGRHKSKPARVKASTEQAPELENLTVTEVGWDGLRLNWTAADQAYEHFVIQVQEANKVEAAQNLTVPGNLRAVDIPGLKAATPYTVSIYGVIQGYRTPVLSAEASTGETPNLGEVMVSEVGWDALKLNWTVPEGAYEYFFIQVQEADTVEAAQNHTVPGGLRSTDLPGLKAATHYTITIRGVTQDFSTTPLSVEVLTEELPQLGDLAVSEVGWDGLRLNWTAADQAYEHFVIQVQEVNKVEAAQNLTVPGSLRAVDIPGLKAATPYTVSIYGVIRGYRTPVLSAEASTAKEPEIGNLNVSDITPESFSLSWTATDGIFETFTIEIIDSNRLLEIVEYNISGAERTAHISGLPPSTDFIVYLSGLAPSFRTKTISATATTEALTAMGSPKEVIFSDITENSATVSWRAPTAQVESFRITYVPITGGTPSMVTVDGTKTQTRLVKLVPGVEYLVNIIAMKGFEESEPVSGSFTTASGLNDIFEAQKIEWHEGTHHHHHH
Description: SPR Biacore T200, biotinylated TnC on SA chip, IgG as analyte, 1:1 fit (apparent, bivalent). As to the method: as §1, §2, §3

For test [5], the target named is T5, muTNC (recombinant murine TnC antigen) (mouse, biotin on the C-terminal avi-tag where used biotinylated (Example 5)).
T5 construct: GST may have been cleaved off by thrombin; The text says this construct lacks the C domain; also called mouse TnC
T5 chain: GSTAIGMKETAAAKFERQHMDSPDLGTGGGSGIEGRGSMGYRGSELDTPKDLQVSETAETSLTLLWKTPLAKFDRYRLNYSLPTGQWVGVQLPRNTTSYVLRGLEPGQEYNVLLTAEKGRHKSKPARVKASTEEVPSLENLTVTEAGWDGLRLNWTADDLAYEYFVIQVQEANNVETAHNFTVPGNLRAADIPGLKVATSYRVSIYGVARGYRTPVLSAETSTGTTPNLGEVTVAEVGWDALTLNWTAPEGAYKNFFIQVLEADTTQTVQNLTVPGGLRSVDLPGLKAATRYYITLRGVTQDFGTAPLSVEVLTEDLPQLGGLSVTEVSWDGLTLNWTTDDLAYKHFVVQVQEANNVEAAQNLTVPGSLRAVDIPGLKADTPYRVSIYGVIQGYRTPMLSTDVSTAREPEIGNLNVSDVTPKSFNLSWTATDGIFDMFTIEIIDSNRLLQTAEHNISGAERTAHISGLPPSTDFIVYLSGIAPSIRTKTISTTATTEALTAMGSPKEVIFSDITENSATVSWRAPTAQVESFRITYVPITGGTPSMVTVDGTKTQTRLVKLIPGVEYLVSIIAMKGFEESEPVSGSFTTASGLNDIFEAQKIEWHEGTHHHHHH
Described as above. As to the method: as §1, §2, §3

Test [6] deals with T6, human TnC on TnC-expressing U87-MG glioblastoma cells (human, UniProt P24821 23-2201).
T6 construct: whole, on cells; also called human-TnC expressing U87-MG
Description: flow cytometry on TnC-expressing U87-MG cells. For orientation: A flow cytometer gives signals particle by particle.

T6 sequence (P24821 23-2201): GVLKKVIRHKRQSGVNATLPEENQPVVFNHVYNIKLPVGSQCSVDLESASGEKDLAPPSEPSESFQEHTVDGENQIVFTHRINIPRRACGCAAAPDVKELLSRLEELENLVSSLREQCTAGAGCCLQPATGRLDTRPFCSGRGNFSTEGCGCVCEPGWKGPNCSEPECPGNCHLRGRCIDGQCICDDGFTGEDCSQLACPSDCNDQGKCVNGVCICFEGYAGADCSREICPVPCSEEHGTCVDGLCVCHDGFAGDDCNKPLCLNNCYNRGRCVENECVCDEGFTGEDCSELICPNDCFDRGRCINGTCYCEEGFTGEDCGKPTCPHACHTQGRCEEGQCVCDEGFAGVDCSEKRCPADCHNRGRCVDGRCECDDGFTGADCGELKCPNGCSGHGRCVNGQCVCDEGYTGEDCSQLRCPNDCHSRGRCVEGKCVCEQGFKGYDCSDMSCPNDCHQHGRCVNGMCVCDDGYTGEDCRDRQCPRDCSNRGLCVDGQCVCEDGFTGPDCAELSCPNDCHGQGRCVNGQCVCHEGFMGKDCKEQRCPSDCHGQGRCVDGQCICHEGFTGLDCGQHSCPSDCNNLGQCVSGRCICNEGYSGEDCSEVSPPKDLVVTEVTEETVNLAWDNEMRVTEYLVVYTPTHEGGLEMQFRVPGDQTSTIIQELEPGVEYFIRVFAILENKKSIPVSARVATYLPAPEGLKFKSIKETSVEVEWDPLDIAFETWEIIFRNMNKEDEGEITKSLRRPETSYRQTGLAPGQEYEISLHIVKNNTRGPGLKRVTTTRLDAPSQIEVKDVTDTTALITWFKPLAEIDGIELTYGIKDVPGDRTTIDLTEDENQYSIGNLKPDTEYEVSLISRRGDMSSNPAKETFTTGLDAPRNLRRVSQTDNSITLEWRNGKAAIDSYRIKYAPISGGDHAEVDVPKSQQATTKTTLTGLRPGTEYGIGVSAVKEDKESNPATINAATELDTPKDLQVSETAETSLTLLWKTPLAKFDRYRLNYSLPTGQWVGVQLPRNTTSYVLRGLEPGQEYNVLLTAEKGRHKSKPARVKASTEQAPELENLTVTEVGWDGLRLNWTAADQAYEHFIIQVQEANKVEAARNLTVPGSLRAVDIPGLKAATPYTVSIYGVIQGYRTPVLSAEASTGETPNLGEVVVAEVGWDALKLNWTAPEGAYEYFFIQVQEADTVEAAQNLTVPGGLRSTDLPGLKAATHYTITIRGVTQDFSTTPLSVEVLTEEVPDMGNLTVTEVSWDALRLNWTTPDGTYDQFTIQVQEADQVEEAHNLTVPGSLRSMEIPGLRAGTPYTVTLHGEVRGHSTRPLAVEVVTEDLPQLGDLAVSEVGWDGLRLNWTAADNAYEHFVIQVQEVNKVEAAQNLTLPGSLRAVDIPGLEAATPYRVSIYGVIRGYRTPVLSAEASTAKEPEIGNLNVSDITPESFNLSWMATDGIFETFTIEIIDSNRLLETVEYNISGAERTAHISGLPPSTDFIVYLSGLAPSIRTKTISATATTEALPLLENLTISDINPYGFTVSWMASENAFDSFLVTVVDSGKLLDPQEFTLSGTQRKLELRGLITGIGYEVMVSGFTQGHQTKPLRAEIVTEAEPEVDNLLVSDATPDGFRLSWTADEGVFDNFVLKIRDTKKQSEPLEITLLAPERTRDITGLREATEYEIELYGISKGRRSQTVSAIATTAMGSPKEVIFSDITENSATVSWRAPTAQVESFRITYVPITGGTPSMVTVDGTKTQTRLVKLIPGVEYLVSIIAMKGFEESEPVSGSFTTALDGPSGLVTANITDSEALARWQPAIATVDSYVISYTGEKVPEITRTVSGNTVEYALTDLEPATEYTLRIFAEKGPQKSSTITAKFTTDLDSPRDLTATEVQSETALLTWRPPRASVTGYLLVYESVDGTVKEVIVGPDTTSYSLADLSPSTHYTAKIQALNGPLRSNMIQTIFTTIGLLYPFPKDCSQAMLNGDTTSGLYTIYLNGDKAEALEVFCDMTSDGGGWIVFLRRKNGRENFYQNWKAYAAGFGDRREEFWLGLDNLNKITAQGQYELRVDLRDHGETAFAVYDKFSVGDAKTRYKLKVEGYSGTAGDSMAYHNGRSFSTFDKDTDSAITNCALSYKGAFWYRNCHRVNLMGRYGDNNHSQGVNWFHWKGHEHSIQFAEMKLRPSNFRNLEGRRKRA

B1: anti-TnC clone 11C7 rabbit IgG (antibody, V domains shown)
VH: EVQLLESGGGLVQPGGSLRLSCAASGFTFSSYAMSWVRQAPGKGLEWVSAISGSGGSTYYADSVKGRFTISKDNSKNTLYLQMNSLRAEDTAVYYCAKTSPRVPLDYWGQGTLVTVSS
VL: SSELTQDPAVSVALGQTVRVTCQGDSLRSYYASWYQQKPGQAPVLVIYGKNNRPSGIPDRFSGSSSGNTASLTITGAQAEDEADYYCNSINSTRNEVFGGGTKLTVL
notes: also called llC7 rb IgG; 11C7 (rb IgG)
For B1, the Kd in test [1] is 0.029 nM.

B2: anti-TnC clone 11C7 Fab (Fab, V domains shown)
VH: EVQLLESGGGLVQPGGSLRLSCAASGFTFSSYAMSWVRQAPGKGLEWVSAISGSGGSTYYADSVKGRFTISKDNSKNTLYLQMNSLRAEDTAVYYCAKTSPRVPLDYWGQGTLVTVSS
VL: SSELTQDPAVSVALGQTVRVTCQGDSLRSYYASWYQQKPGQAPVLVIYGKNNRPSGIPDRFSGSSSGNTASLTITGAQAEDEADYYCNSINSTRNEVFGGGTKLTVL
notes: Bacterially expressed purified Fab from the lambda-DP47 phage library format (lambda CL, CH1, tags)
With B2, the Kd amounted to 1 nM in test [2] and 2.3 nM in test [3].

B3: anti-TnC 18D4 wild type human IgG1 (antibody)
heavy: not shown
light: DIQMTQSPSTLSASVGDRVTITCRASQSISSWLAWYQQKPGKAPKLLIYDASSLESGVPSRFSGSGSGTEFTLTISSLQPDDFATYYCQQNKKFPSGTFGQGTKVEIKRTVAAPSVFIFPPSDEQLKSGTASVVCLLNNFYPREAKVQWKVDNALQSGNSQESVTEQDSKDSTYSLSSTLTLSKADYEKHKVYACEVTHQGLSSPVTKSFNRGEC
notes: also called 18D4 IgG wt Fc; a-TnC(18D4) huIgG1
For B3, the Kd was found to be 0.093 nM in test [1], 0.036 nM in test [4] and 0.061 nM in test [5].

B4: anti-TnC(18D4) huIgG1 P329G LALA (antibody)
heavy: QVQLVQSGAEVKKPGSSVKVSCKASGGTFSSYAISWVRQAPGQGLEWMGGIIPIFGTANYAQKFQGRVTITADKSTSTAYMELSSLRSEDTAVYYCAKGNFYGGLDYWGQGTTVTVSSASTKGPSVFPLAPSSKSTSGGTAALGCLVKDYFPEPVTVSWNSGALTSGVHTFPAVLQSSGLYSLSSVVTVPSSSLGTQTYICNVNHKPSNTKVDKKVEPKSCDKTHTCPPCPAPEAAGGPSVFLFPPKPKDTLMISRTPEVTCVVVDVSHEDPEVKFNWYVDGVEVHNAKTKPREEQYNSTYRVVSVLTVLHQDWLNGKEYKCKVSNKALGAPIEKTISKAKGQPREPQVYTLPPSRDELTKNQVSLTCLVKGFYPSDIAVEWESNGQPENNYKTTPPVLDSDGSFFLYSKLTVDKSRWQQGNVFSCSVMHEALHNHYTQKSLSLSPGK
light: DIQMTQSPSTLSASVGDRVTITCRASQSISSWLAWYQQKPGKAPKLLIYDASSLESGVPSRFSGSGSGTEFTLTISSLQPDDFATYYCQQNKKFPSGTFGQGTKVEIKRTVAAPSVFIFPPSDEQLKSGTASVVCLLNNFYPREAKVQWKVDNALQSGNSQESVTEQDSKDSTYSLSSTLTLSKADYEKHKVYACEVTHQGLSSPVTKSFNRGEC
notes: also called 18D4 IgG PG/LALA; 18D4 IgG PGLALA
On to B4, for which, in test [6], a half-maximal effect (EC50) was put at 4.24 nM. In addition, the Kd in test [1] amounted to 0.032 nM; in test [4], 0.011 nM; in test [5], 0.03 nM.

These data come from patent US20190248877A1 (Hoffmann-La Roche, published 2019).
